This is an account of results in publication doi:10.1101/2020.08.21.260711, “Eukaryotic translation initiation factor 5A and its hypusination play an important role in proliferation and differentiation of the human enteric protozoan parasite Entamoeba histolytica” (bioRxiv, 2020).

The target in this test is T1, Entamoeba histolytica deoxyhypusine synthase 1 (EhDHS1) with the amino-terminal His-tag (E. histolytica, UniProt C4LXB8 1-331).
T1 sequence (looked up): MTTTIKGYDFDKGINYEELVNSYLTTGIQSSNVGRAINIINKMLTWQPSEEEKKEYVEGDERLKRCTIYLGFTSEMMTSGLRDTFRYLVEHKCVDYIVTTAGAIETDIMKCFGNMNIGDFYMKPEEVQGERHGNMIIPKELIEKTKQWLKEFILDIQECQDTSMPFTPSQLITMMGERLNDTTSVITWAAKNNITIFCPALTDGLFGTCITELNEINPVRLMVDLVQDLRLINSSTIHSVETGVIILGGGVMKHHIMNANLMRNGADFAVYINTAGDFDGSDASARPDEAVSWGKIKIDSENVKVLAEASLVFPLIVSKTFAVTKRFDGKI
Briefly: cell-based or functional assay.

B1: Entamoeba histolytica deoxyhypusine synthase 2 (EhDHS2) with the carboxyl-terminal S-tag (enzyme, E. histolytica, UniProt C4M2N7 1-336, looked up)
chain: MSITGEEFAKVTSKVLGESKEYKGEKCIGYDFDNGVDFNKVMEKMKYTGFQALNLGLCIEQVNEMRKNHAKIFLGMSSNIVSSGLREVIHYLVKNKFVDAIVVTAGGIEEDFIKTMHPTLLGDFYFKGKELYPNGYNRIGNLILPNSNYCEFEDWMDPLLLECLKEQNEHGVHWTPSKLVHKMGESINNESSIYYWAAKNNIPVFSPAITDGSIGDMIFFFSYKNEGLVLDLVQDVIKIDEMAFNAEKVGCLLVGAGIAKHHILNAMKRRGGCDYCAMLSTSIECDASDAGSEIAADRTKGFFKPECNPAKVIGDATILLPLIVASTFAQKEEPTK
notes: EhDHS2 gene amplified by PCR, stop codon removed, cloned into AatII-XhoI of pETDuet-EhDHS1; The stop codon was removed to fuse the gene with the C-terminal S-Tag of pETDuet; also called S-tag DHS2; EHI_006030; source: E. coli BL21 (DE3), coexpressed with EhDHS1 from pETDuet-EhDHS1/2, in lysate, then copurified on Ni2+-NTA; not shown: S-tag, C-terminal, kept
Take B1: the “DHS enzymatic activity (1,3-diaminopropane production) of coexpressed EhDHS1/EhDHS2 as compared to EhDHS1 alone, with EheIF5A1 or EheIF5A2 as substrates” value was more than 2000 fold.
